Assay results from the DeepSol protein solubility set.

Assay: soluble on expression in E. coli; label from the status in PepcDB or PDB records

Row | Sequence | soluble on expression in E. coli
1 | MSLNEESYLVNRGKGVVRYDVVQVPSNSPIEDDHAEKIVEVPASTSAANEGQSSSDWMFWAVFDGHSGWTTSAKLRNVLISYVARELNATYKSASSDPSLVLPSSEAVDAAIKQGFVRLDNDIVHGSVNQVFKSNSRRAAAELLAPALSGSCALLAFYDSQTRDLKVACAGDSRAVLGRRSENGKWTATPLSEDQTGGTPSEMKRLREEHPGEPNVVRNGRILGQLEPSRSFGDAFYKWSKETQEKIKRQFFGRTPHPLLKTPPYVTAEPIITTTKVDPSQGDFLVLATDGLWEMLSNEEVVGLVGQWIEEQKAAAGAGTGNKSWVRSLFGSQPTEGHHHHHH | soluble
2 | GQLAQDGVPEWFHGAISREDAENLLESQPLGSFLIRVSHSHVGYTLSYKAQSSCCHFMVKLLDDGTFMIPGEKVAHTSLDALVTFHQQKPIEPRRELLTQPCRQKD | soluble
3 | MGSDKIHHHHHHGEDSEGSGTSGISPGGNSVSEEVLKHRSMVEKYAKESDILDYVPILLAIIQVESGGTMEDVMQSSESAGLPPNSLSTEASIKQGCIYFASLVKSSKELGCDQDSIIQAYNYGGGYLNYVAKNGKKHSFTLAESFSKEKSGGQKVDYPNPIAIKENGGWRYNYGNMFYCLLVKQYLTTTQFDDKTVQGIFDEAFKYEGTAYVFGGSSPATGFDCSGLTQWCYAKVGLKLPRVAQDQYDVMTHIDLKDAKPGDLIFFHSTYDAGTYVTHVGIYAGENRMFHAGNPVGWTNLTESYWQQHLIGAGRYN | not soluble
4 | MSLNSEAFTGNAAQRFLFSSSDGTKIVSIADRGHLRWCHSTSTTYKSLDFDLQFEGKVEGAVSSTTADYVCIYNRDELHVLEVPWMYSGEENGLKHLCHIYSHKFDENHSIKQVLFHPKSYLDSTILVLTNDDSIFMINTDDNRSDKNMINLNSKNSALGLYDRINDIQKIIFSQDGLSLLILSAEEGCDIFTIYPCLPRRWDISLHEVDTLFAKSLLLYNNMNVNTTPQEKRNIVKQLNFMEKIRGQKTAFRNDKKPLILEDAYLNAQPQGPFSMTPYPNELYDFMATDINIIQITQNISLLAIAFSNGTVLLFLSDLEPIMSWDISRFPGSNSLALLEQIKLEITDNAKFLSIPGTYGKFVVTDNVKSNFFVNTCDWSTILAQIIDDSDIKLLANLKVKSNIENLQQLATTFKSIIYWKNENISCNYIISDKKIEELDEGHHHHHH | soluble
5 | AHHHHHHGSRYFFYPNSVAIFGSFREGAIAREILRNIVEGGFEGKIIPVNPKGGEVEVAGKKFNIKEKLDEPVDVSIIAIPAKLVPELIRGLKGLTKGAVVISAGFSEVGNVELEKELIKAAKEAGIRVIGPNCAGIFGVHAKFYGSFEVRVNPGGLALISQSGAFGGAALAMGNEEGIGFSAFVSYGNAADLDESDFLRFFADDENTRVIGLYIEGVKDGRKFLDALRYAASKKPVIILKAGKSRAGARAAASHTGSLAGSYEIYRAAFRQAGAIEVEEMEELFDAAKAFEMYERAGRRVAIITNSGGPGVLATDKLERLGLEIAKLTEETVEELRSFLPPQCSVKNPVDLIADADYERYKRAIEVVCRDENVDAILVICVPPIFIPSEEIARAVVEANCDKPIIVNFMAGELVREGIKILESKKIKNFPTPERAAKALYWLSLRSSSE | soluble
6 | LLSPPIALKPLDSSAKWRIIYWNPNGCDKTCLKQLNMLGRVRLSFGRKLYQVDEWLLLSNKDSLIAEELKPILKEQDIHVAALSLTEMSKLSTLYPEAKIFIANPDNYLILSYQPGCNPGDIYKDLKLLLNTTEIKSG | soluble
7 | MFDVDIKFGDVYVRNIEEKDIGELKEILKDKKFYLNDEELKEIFLEYYMSECEFFTKILKKGKFVGVFRGRIEFKSSNMAWISYFYVDERYSSYKDSQDILMNILEYFSESFGVTDFITGVTNSEKDMIELWENNDFKTVRINKEFYSDRGYKEDLVIMKKYSAI | not soluble
8 | MSLSETSEHPVDGDELLVRTVLSNQALKRIFTHRTDSMTECYQVEKTFLQSEQSLLIGHQLHPTPKSRQGIDEDEELLFTPERKGSFQLHYFRAACELVDEKSALADSASELIKHDLLHDPNVQDSFKASYCQADDYVLLPVHPLQARKLLGKKEIADLIQAGKLSYLGPQGRAFYPTSSLRTVYHPEAEYMYKFSIPVKITNSLRVNKRKELARGVEVSELLKNGLYDQLKAEHPAFNIVQDPAYITLSLDSEESGLETVIRENPFRQGGEERTTLLAALCQDSIQGNSHLTNLMVELAKQKKISVTEASKWWFSRYLNVSLRPLYWLYATHGIALEAHQQNSIIKLDAEGLPSLFYYRDNQGYYFMQSKAETLKQFVPTLNEQSDTICSDAVAEERFRYYVFFNHLFGLVNAFGTNRLIDEEQLLHILREELTLLRQQFGDPTNLVNSLLHEEMLPCKANLLTRIHDMDELEGSLATQSVYVPVPNPLVVMAGELHEGHHHHHH | soluble
9 | MEHSLPPYRLRRSPRAKYLRLLIRPDGIEVVVPTGLSDATVLAFVRQHGGWAQARLEELLARLAKLRQGQAERFPAEGGSVPLEGRETPLFIEETGGSRIRVSLEDQGLRLILPRTCGADRDRYVRDALFGWMKRRLPGRVTELIERHAPLHGLYPRQLRIKSMRTRWGSCGPANDINLNWLLGLAPLSVLEYVVVHELCHIRHRNHSRDFWELVAAHLPDWRQERQWLKAHGGGLIQRFDPAFRLEHHHHHH | soluble
10 | MVHKSVESPAFSASIEDYALIGDQQSAALVARDGSIDWLCLPRFDSPACFAALLGDEHNGKWRIAPKGAGPCTRRAYRTDSLVLDSEWDTPEGTLRVTDLMPQRDSAPDLVRIVEGLRGRVTVRSAIRLRFDYGLEHHHHHH | soluble
11 | SLIKQKLKISQNLNSIQIQTIKILSLNQKELTKLILEESENNECLEINSNKIFFETLKTYRFKKVFYKEDDMIKNQHDIALEKTQTNTSLKEHLLLQLRIQRINEDEIKIGEILINNLNSKGFHIINPYDLFKKEEKEKVKKIIELIQKFDPIGICVPNIIESLILQAKHHKLETNIIKILEKAELLEKTQKKLKEELKIRSKEFNTALEIIRQKLNPNPTLEFKDPNDTNFYVDPDILIINHNNKFKIKIKEVNIFKKELKRTSENPQKQKKAKWLIESLRYRDEILAKIGIAIYTLQKEFLRRGFKSLRPMNLSILSEKISVSKSTISRAIKNKYLKCEWGTILIKELFSSVGGAKTNEFSKLSIKITVKKLLEANKKMSDKEISVILKSKGISISRRTVNKYRNELKSEKGRTYYGT | not soluble
12 | MTNTTMQPNRLRIALQKKGRLSQDCAILLKQCGVKINWNEQRLIAYAENLPIEILRVRDDDIPGLIFDGVVDLGIIGENVLEEEELGRRAANETVTYKKLRQLDFGDCRLSLAVDRDCHYENVKDLANRRIATSYPHLLKRYMNENGVSFKSCLLNGSVEVAPSAGIAYAICDLVSSGATLEANGLKEVDVIYRSKACLIQRAEPLESTKQALVDKLLTRIQGVQQAAESKYIMLHAPKEKLEKITALLPGVENPTILPLASDTTRVAMHVVSQENLFWETMEQLKEAGASSILVLPIEKMMELEHHHHHH | soluble
13 | MGSDKIHHHHHHMSEIASTKARKRCAVYCRVSSDERLDQEFNSIDAQKEAGHAYVASQRSEGWISVADDYDDPGFSGGNTDRPGLKRLMADIERGQIDIVVVYKIDRLTRSLADFSKMVEVFERHEVSFVSVTQQFNTTTSMGRLMLNVLLSFAQFEREVTGERIRDKIAAAKRKGMWMGGVPPLGYDVDNRLLVINETEAAVVRRIFEEMLTIGSPTQIAVNLTADGITNKAWTTQEGQTRNGTRIDKKYLHNLLRNRIYLGELSHKGNWYPGAHLPIIDRELWDKVHAVLARDGHARSVETKIRSRTDALLRGLLYAPSGERMYPTYSRKNGRKYHYYVSKSESRFGAPGKSY | not soluble
14 | APEWTEEDLSQLTRSMVKFPGGTPGRWEKIAHELGRSVTDVTTKAKQLKDSVTCSPGMV | soluble
15 | MGALGYHPYFESNMIHSMTAFAADEHLTPWGLLACELRSVNHRFLDIVIRLPEELRALEPQLRERVAARVSRGKLDLTVRLSPQEIHTGKLVVNELLLSQLSTLALRLSAQFPALRVTFAELLQIPGVLKGEQIDMATLQGHAVALLDKVLNNFIATREREGLKMQAMIAQRASAIERIVGEVRILIPTIREGQHNKLSARMNHLSYPVDPGRIEQELVLWLQKLDVDEELDRLSSHISELHRILQQREPVGRRLDFLMQEFNREANTLGSKSVDSRTSNATIELKVLIDQIREQVQNIE | soluble
16 | MDIFMTCSICGFTHNCICAHQPNLSSNIEFALLYHENERHKLTNTGKLLLNSLSNTTEYTWQRKEPPQALISKINQADTETWLLFPSKEPVLSSDFHHRHDPSKKQLFVLLDATWQEAKKMVNKSPWLKALPCLEIQTDEASRYHLRRNQSEGNLCTCEAGIEVLEMVKEPENAQALSCYYDQFLTVFQAERSGHKFTSLEHHHHHH | soluble
17 | MSDTPAQTPEPSKKTPEPSGVDLARVALRAAKEQARARGDAAQQKRQARRGGLRSGARADGRDPMALGAAINRLLTERGWETPAAVGGVMGRWPQIVGEDLAKHCVPQRYDEDERVLTVQCDSTAWATQLRLLAPQLVARLNEDLGHGTVRLLKVQGPGGPARRYGPLRAPGSTGPGDTYG | not soluble
18 | MGSDKIHHHHHHMTMQQVLDGTATFMEHLGLNEEPLGVYYSDDKPENAFGPKTGVPISRELEESGKLDMREVMKSFTCVMGSIWLARKKHGAAFISQTEYGCPGGVYYCAMLQPHLRFIEHYVSTGFEGTPLQGERYMPDPDAMRNFILRVAPRKAPARYCIFKPLSLFSAQEKPEFIIFFARPEVLTGLFTQTVFTTGDMDCVASPFGAGCTNILGWPLYYKEKGIEKAVIGGFDPSARKFMKTDELTFTVPLSLYEKMLAALPESMFTHETDWKNVRKKVARSAKAWRVRRPGAKQPPPSTCPITY | not soluble
19 | SLSAKDKANVKAIWGKILPKSDEIGEQALSRMLVVYPQTKAYFSHWASVAPGSAPVKKHGITIMNQIDDCVGHMDDLFGFLTKLSELHATKLRVDPTNFKILAHNLIVVIAAYFPAEFTPEIHLSVDKFLQQLALALAEKYR | soluble
20 | MAHHHHHHMRSVWSGCRSIVSPPLWPLRLRHSVQVGAHGGHAFGMCSRSESVVSTFAMRVSLRWHGTTTPPSASPEGSSGAVHSVLSAAGHNDEEEASSSRSFRGTVRTVRLHNMPRTWLHEEVMQFLHQVAEHAGIDPPPEATQDNGTEGNANSKEYEEEDMTSAVPNVTSPFVARMHIPFGRRTGIVCGPPIIQLTSDALAGYLLNDLNFEPDDYRSRIYFTEVVNDKYHEATKMVNKDEAALLKMEQQEALESLELDRYLMAPDLLYDIAKMRQRRLVTRRSKLLLHTFADDDRPDEGEDGKDQSEVKDDDPTNENKRVRLRRHKKSKKTLRCVGEYKELGRGSVHSVPLALPYVQGRRGV | not soluble
21 | MGSDKIHHHHHHMAFNFGCLNSPETVSSALATRENSLGLAIDPFLAPVAMVATQDIVLRQYFRERIVLGQENLPMQGPVLLAPTHRSRWDALMLPMAAGRRVTGRDCRFMVTVDEMKGLQGWFLHRLGCFPVNQSKPSLTSLRYAIDLMADGQQVVVFPEGTINRTEKPIKLYQGLARLAQLAKSQNIDVQVVPVGLGYSEVIPKACGRASICFAEPMKVLETGREAVKSFNAELSEKMHAAEQAALHAVGRLKKAP | not soluble
22 | QTLTEEEVLKKLDKEQMRASFEDMRRIMPDLGFEAKGYALSFEQLAQLKIPVIVYLKYRKDDHFSVLRGIDGNTVLLADPSLGHVSMSRAQFLDAWQTREGNLAGKILAVIPKKAETISNKLFFTQHPKRQTEFTVGQIRQARAE | not soluble
23 | WYPSRPLVTTPSQADIQADQSSPRDLLEYFLSGLGETSLPVIQQQVQRYEQENQGLLIDSSLFAQYVQYKAALSELTLPQASGGLSTQEWWQLHQSLLDLQARYFSAEQQALFAEENRLRELAIEKRRIYEQYGQSEEAQRAWQALLLDQPDFIQRSEATAQLLPQLTQAGQGDTQQRYLARVALVGEQGAQRLAELDDSRATFEQQFQDYYQARAAILVRNELSASEQQTQIQQLREQHFAPEQWRRIDALERLKDN | not soluble
